± gives the standard deviation.

This series is described as follows: protein stability index of a GFP-peptide fusion (GPS, HEK-293T) (PSI 1-6); higher = more stable.
Where [1] appears, read: treatment: DMSO, c terminus: a fixed tail appended.
Setting [2] is: treatment: MLN4924 1 uM, 8 h, c terminus: a fixed tail appended.
[3] abbreviates: treatment: DMSO, c terminus: native.
Setting [4] is: treatment: MLN4924 1 uM, 8 h, c terminus: native.
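Also: 24-mer peptide tiles fused after GFP, lentivirally expressed, FACS-sorted into six equal bins by GFP/DsRed ratio, decoded by Illumina sequencing, PSI is the read-weighted mean bin number.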

Turning to KPGLRRSPIKKVRKSLALDIVDED [MYBL2], the protein stability index is, setting by setting: under setting [1], 4.84 ± 0.5; under setting [2], 4.92 ± 0.48.

For FPNIASATKFKQLYRSRMNSLEMT [HMOX1], the protein stability index under setting [1] turned out to be 2.37 ± 0.16 and the protein stability index under setting [2] stood at 2.62 ± 0.23. As to QQPSLNTMIQQQNMQQPMNVMTQS [CLINT1], the protein stability index by setting is: under setting [1], 4.41 ± 0.21; under setting [2], 4.52 ± 0.087. In the same order, the values of MMHGGSYSLTTSSTHKRSSLRKVK [RAB40B] are 4.15 ± 0.25 and 4.35 ± 0.15. In the same order, the values of WEWSPAGLQSYQQALLRISLDKVQ [SERTAD3] are 2.48 ± 0.58 and 2.49 ± 0.69. In the same order, the values of GAGAVSRTCTAPLDRLKVLMQVHA [SLC25A25] are 2.32 ± 0.48 and 2.41 ± 0.14. For ASRVKLQHLPAQEQWDRLLVLYPT [PLEKHN1], the protein stability index runs as follows: under setting [1], 2.21 ± 0.14; under setting [2], 2.41 ± 0.35. In the same order, the values of EFEEATGEAGWGAGEGRLGHKRKQ [FOXJ1] are 5.26 ± 0.39 and 5.19 ± 0.5. In the same order, the values of TSQKIAARAFAQRYLADLLPSVFG [RSPH3] are 2.12 ± 0.56 and 2.09 ± 0.18. In the same order, the values of SSYYKFKLTREVLSLFVQKLGNLM [ZER1] are 2.83 ± 0.45 and 2.6 ± 0.36. As to TILDIFRFALRFIRPDPRSRVTDP [FAF2], the protein stability index under setting [1] amounted to 2.75 ± 0.48 and the protein stability index under setting [2] worked out at 2.75 ± 0.099. For the sequence WNDAPCDKTFLFICKRPYVPSEP [CD207], the protein stability index is 1.99 ± 0.96 under setting [3] and 2.13 ± 0.13 under setting [4].

On to DRAPAEQVPRSPVIKISYSTPQGK [PWWP2B], for which the protein stability index stood at 4.44 ± 0.29 under setting [1] and 4.52 ± 0.3 under setting [2].

With SKAKKLVCNINKGCGYGCQLHHVV [FUT8], the protein stability index under setting [1] was determined as 2.71 ± 0.43 and the protein stability index under setting [2] turned out to be 2.19 ± 0.4. In the same order, the values of PLTRLGQLKACTNFDDILNVCDDY [KCNG1] are 3.18 ± 0.29 and 3.34 ± 0.23.

As for GDLIEITDAKKREALYAQDPSTGC [KMT5A], the protein stability index runs as follows: under setting [1], 5 ± 0.24; under setting [2], 4.86 ± 0.33.

On to EKSLDQLKSISAEEILTLFCGAPP [PHTF1], for which the protein stability index runs as follows: under setting [1], 3.02 ± 0.21; under setting [2], 3.3 ± 0.15. Regarding AIQDQLPRLQQLLKTLEEGLEGLE [FANCE], the protein stability index runs as follows: under setting [1], 3.61 ± 0.32; under setting [2], 3.68 ± 0.23. With LGCALLAAHAVVLCALPVHVAVEH [SOAT2], the protein stability index came out at 3.43 ± 0.35 under setting [1] and 3.09 ± 0.51 under setting [2]. In the same order, the values of VIVWDGDTTRQVQRISCFQSTVKC [WDR41] are 2.31 ± 0.31 and 2.01 ± 0.11.

As for RVRTVLNEKQLHTLRTCYAANPRP [ISL2], the protein stability index came to 2.74 ± 0.27 under setting [1] and 2.96 ± 0.2 under setting [2].

Consider MTTHPLTNNNIKQRLIKKVQEAVL [GOLPH3], for which the protein stability index stood at 2.79 ± 0.65 under setting [1] and 2.65 ± 0.59 under setting [2]. In the same order, the values of GEQPEPGEAAAGGAAEEARRLEQR [ACBD3] are 5.53 ± 0.34 and 5.44 ± 0.24.

For the sequence YPEQSKGFHKAGSMLPPVNFSIVP [SPATS1], the protein stability index by setting is: under setting [1], 2.65 ± 0.5; under setting [2], 3.06 ± 0.69. Turning to GSAGRLLAVGTDLYGQRNSAPEQE [GFOD1], the protein stability index reads like this: under setting [1], 4.61 ± 0.44; under setting [2], 4.79 ± 0.21. In the same order, the values of RYPTISMVKPLLHMLLNTTLNIKE [ZBED1] are 2.83 ± 0.58 and 3.37 ± 0.72. In the same order, the values of CGNIKAPSLQAWNDAPCDKTFLFI [CD207] are 2.72 ± 0.41 and 2.49 ± 0.55. In the same order, the values of LWSLFVPFTVYQVRWLRPVHRQLG [AUP1] are 2.82 ± 0.59 and 2.59 ± 0.69. EQQTMDNLEKQLICPICLEMFTKP [TRIM55] came in with a protein stability index under setting [1] of 3.77 ± 0.38 and a protein stability index under setting [2] of 4.14 ± 0.38. In the case of AAAYSPSEALLYALVHDHQAYAHY [ANKRD9], the protein stability index by setting is: under setting [1], 2.05 ± 0.14; under setting [2], 2.27 ± 0.28. On to MDVPGPVSRRAAAAAATVLLRTAR [SLC19A2], for which the protein stability index under setting [1] came to 3.29 ± 0.23 and the protein stability index under setting [2] amounted to 3.42 ± 0.089.

PSRGHAYRDYGHSRRDESYSRGYR [RBMY1A1]: the protein stability index was found to be 4.42 ± 0.13 under setting [1] and 4.34 ± 0.26 under setting [2]. In the same order, the values of SSAGGAKAGQPESRALALFDIQKI [ZNF8] are 3.99 ± 0.52 and 4.26 ± 0.26. LGLDNRLFGHPGLDMELGPSQGQE [ADAMTSL2]: under setting [1], the protein stability index stood at 4.84 ± 0.21. For VQEAVLDKWVNDPHRMDRRLLALI [GOLPH3], the protein stability index is, setting by setting: under setting [1], 2.29 ± 0.18; under setting [2], 2.52 ± 0.17. In the same order, the values of GSEVYRMLREPAEPVAAEPKQSGS [PDLIM4] are 5.12 ± 0.25 and 5.03 ± 0.22. In the same order, the values of IDSGSPAEEAGLKNNDLVVAVNGE [PDZK1] are 5.45 ± 0.48 and 5.58 ± 0.2.

Regarding PGMPPPVPRPGIPPMTQAQAVSAP [ZNF207], the protein stability index by setting is: under setting [1], 4.94 ± 0.15; under setting [2], 4.86 ± 0.19.

Turning to MPPATGGGLAESELRPRRGRCGPQ [POMT2], the protein stability index runs as follows: under setting [1], 4.59 ± 0.17; under setting [2], 4.61 ± 0.18. In the same order, the values of LALYVLFLADEEFDVVVCDQVSAC [ALG2] are 2.92 ± 0.44 and 2.59 ± 0.59.

The sequence IKQDINSLNKQIAQLQDFVRAKGS [STX5] returned a protein stability index under setting [1] of 3.25 ± 0.12 and a protein stability index under setting [2] of 3.38 ± 0.28.

On to SYQEEAAMELKVEDPFYWVSPGVL [MOG], for which the protein stability index is, setting by setting: under setting [1], 3.25 ± 0.5; under setting [2], 3.28 ± 0.13. In the same order, the values of LETFGHLLSIGPELPKPEVISQLE [ZNF8] are 3.94 ± 0.38 and 3.93 ± 0.19. In the same order, the values of FIEERRQGLEQFINKIAGHPLAQN [SNX12] are 2.73 ± 0.17 and 2.94 ± 0.47.

The sequence PGAGSRRRGRMALCGQAAGAASLP [FBXO33] gave a protein stability index under setting [1] of 2.76 ± 0.2 and a protein stability index under setting [2] of 2.97 ± 0.17. In the same order, the values of MKRSKELITKNHSQEETSILRCWK [RNF180] are 3.11 ± 0.24 and 3.19 ± 0.058. As for TLQELLARDTVQVELIPEKKGLFL [SNX8], the protein stability index under setting [1] amounted to 2.47 ± 0.62 and the protein stability index under setting [2] was 2.41 ± 0.43. In the same order, the values of NTEEQLEIALAPYQHLEEDMKSLK [MTUS2] are 4.78 ± 0.17 and 4.8 ± 0.28.

As to ARGAGPPEPLRICPLHISVKEELD [TRIM35], the protein stability index is 4.59 ± 0.19 under setting [1] and 4.86 ± 0.4 under setting [2]. In the same order, the values of VDGRLTYPTCGIGYPVSSAFAFQN [SASS6] are 2.37 ± 0.23 and 2.38 ± 0.37. For the sequence ILRCWKCRKCIASSGCFMEYLENQ [RNF180], the protein stability index runs as follows: under setting [1], 2.36 ± 0.4; under setting [2], 2.43 ± 0.46. With RVEVLTDAGGWVLIDRSGRHFGTI [KCTD13], the protein stability index runs as follows: under setting [1], 2.37 ± 0.46; under setting [2], 2.38 ± 0.7. In the same order, the values of RPEKHTKEQILEFLVLEQFLTILP [ZNF232] are 3.03 ± 0.62 and 3.4 ± 0.66. In the same order, the values of IAQYALLGYFIRSWRTLAILVNLQ [SLC22A15] are 3.07 ± 0.51 and 2.78 ± 0.21.

Sequence FELQRLEFDLSPLNLDIGQVYKET [AASDHPPT] came in with a protein stability index under setting [1] of 2.42 ± 0.092 and a protein stability index under setting [2] of 2.29 ± 0.62. In the same order, the values of LEAAEALLTLRNSAQAPPDSISLH [DMRTC1] are 4.42 ± 0.18 and 4.27 ± 0.25. Sequence ALHIIVQYNRPISDFLTLHSIIIS [FEM1B] had a protein stability index under setting [1] of 3.03 ± 1 and a protein stability index under setting [2] of 2.37 ± 0.56. Regarding VRCGLLGSLGPVPVLRFDALWQVL [TRIM14], the protein stability index runs as follows: under setting [1], 2.29 ± 0.39; under setting [2], 2.29 ± 0.49. In the same order, the values of TLDQTTSEEAPGGTELIQTPLASS [HDAC6] are 5.52 ± 0.22 and 5.49 ± 0.26. In the same order, the values of PMMEHEMGGHHPGADYPVDGLPDL [CTNNB1] are 5.2 ± 0.23 and 5.24 ± 0.13. TTDDTTAMASASSSATGSFSYPE [MAGEA10]: the protein stability index reads like this: under setting [3], 5.28 ± 0.14; under setting [4], 5.4 ± 0.066. Regarding PELRQLVLSLLSLEPAQRPPLSHI [NEK8], the protein stability index is, setting by setting: under setting [1], 2.56 ± 0.41; under setting [2], 2.47 ± 0.46. Take DDGYSTKDSYSSRDYPSSRDTRDY [RBMX]: the protein stability index is, setting by setting: under setting [1], 4.9 ± 0.25; under setting [2], 4.77 ± 0.081. In the same order, the values of KYDPKTQEWSFLPSITRKRRYVAS [KLHL12] are 3.15 ± 0.4 and 2.93 ± 0.27.

Take DQEGLQRITGLSPGRSALIVAVLC [SPNS1]: the protein stability index came to 2.31 ± 0.46 under setting [1] and 2.27 ± 0.35 under setting [2].

Take TCQRVNGIKVQNGGIVTDTPASNH [SLC19A2]: the protein stability index runs as follows: under setting [1], 4.08 ± 0.34; under setting [2], 4.22 ± 0.17. In the same order, the values of EAYIAKQKRLKSKLLDHDNVKYLK [GDAP1] are 3.15 ± 0.32 and 3.45 ± 0.55.

On to LINTSDTVQHGAVYSLEPRLCGGK [SDE2], for which the protein stability index reads like this: under setting [1], 3.97 ± 0.43; under setting [2], 3.97 ± 0.33.

For RYADLEAVNRARRPLARPIKPNEI [RHOBTB2], the protein stability index stood at 3.77 ± 0.21 under setting [1] and 3.7 ± 0.22 under setting [2]. In the same order, the values of RQNSAPARMLSSNERDSSEPGNFI [CDC25A] are 5.54 ± 0.31 and 5.45 ± 0.14. In the same order, the values of HVASLADDKMVRFWRIDEDYPVQV [WSB1] are 2.4 ± 0.23 and 3.02 ± 0.51. In the same order, the values of YKKGRMMKDISNLEENDETRFILS [SLC6A17] are 3.35 ± 0.29 and 3.09 ± 0.39.

The record behind these values is the supplement of paper PMC10567573.
